In PMC10441363 (bioRxiv, 2023):

Molecular target: hemagglutinin (HA) of A/WSN/1933 (H1N1) (Influenza A virus A/WSN/1933 (H1N1), UniProt I4EPC4)
Experiment: virus aggregation by fluorescence microscopy

hemagglutinin (HA) of A/WSN/1933 (H1N1), sequence (P03454 18-565): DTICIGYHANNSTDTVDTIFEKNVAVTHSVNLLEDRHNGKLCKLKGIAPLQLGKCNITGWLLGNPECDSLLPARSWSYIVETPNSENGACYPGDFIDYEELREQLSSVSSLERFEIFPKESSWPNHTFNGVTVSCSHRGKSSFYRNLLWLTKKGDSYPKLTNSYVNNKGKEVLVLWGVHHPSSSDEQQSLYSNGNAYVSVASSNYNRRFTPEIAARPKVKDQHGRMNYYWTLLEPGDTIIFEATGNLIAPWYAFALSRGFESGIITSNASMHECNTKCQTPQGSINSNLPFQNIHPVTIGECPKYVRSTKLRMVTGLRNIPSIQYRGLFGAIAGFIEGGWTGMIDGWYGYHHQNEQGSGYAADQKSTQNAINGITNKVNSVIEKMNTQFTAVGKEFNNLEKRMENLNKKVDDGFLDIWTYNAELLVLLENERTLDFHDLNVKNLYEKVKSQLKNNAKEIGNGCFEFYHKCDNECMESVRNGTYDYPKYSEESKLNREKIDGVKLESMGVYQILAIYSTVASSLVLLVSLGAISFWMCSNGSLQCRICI

| Binder | binding result |
| --- | --- |
| C05 IgG (antibody, V domains shown) VH: QVQLQESGGGLVQPGESLRLSCVGSGSSFGESTLSYYAVSWVRQAPGKGLEWLSIINAGGGDIDYADSVEGRFTISRDNSKETLYLQMTNLRVEDTGVYYCAKHMSMQQVVSAGWERADLVGDAFDVWGQGTMVTVSS VL: DIQLTQSPSSLSASVGDRVTLTCQASQDIRKFLNWYQQKPGKGPKLLIYDASNLQRGVPSRFSGGGSGTDFTLIISSLQPEDVGTYYCQQYDGLPFTFGGGTKVVIK | binds |
| S139\1 IgG (antibody, V domains shown) VH: QVQLQQSGTELKKPGASVKISCKATGYTFSSYWIEWIKQRPGHGLEWIGEILPEIGMTNYNENFKGKATFTANTSSNTVYMQLSSLTSEDSAVYYCARPYDYSWFAYWGQGTLVTVSA VL: DIVMTQSQKFMSTSVGDRVSVTCKASQNVDTNVAWYQEKPGQSPKTLIYSASNRYSGVPDRFTGSASGTDFTLTITNVQSEDLAEYFCQQYNSYPYTFGGGTKLEIK | binds |
